From US20110008302
Positions count from the first letter of the chain named. In names and notes the source's numbering stands.

Tests used:
[1] = target: T1, H3K4(me3) peptide ART-K(me3)-QTARKST
T1 chain: ARTKQTARKST

[2] = target: T2, H3K36(me2) peptide ATGGV-K(me2)-KPHRY
T2 chain: ATGGVKKPHRY

B1: bacterially expressed mouse Ndy1 fragment containing the JmjC, CXXC and PHD domains (aa 171-707) (protein)
chain: MWPQHLKEKQTEATNALAEMKYPKVKKYCLMSVKGCFTDFHIDFGGTSVWYHVFRGGKIFWLIPPTLHNLALYEEWVLSGKQSDIFLGDRVERCQRIELKQGYTFFIPSGWIHAVYTPVDSLVFGGNILHSFNVPMQLRIYEIEDRTRVQPKFRYPFYYEMCWYVLERYVYCVTQRSYLTQEYQRELMLIDAPRKTSVDGFSSDSWLDMEEESCEQQPQEEEEEEEDKEEEGDGADKTPKPPTDDPTSPTSTPPEDQDSTGKKPKAPAIRFLKRTLSNESEESVKSTSMPTDDPKTPTGSPATEVSTKWTHLTEFELKGLKALVEKLESLPENKKCVPEGIEDPQALLEGVKNVLKEHVDDDPTLAITGVPVVSWPKKTAKNRVVGRPKGKLGPASAVKLAANRTTAGARRRRTRCRKCEACLRTECGECHFCKDMKKFGGPGRMKQSCIMRQCIAPVLPHTAVCLVCGEAGKEDTVEEEEGKFNLMLMECSICNEIIHPGCLKIKESEGVVNDELPNCWECPKCNHAGKTGKQKRG
fluorescence coupled demethylation assay [1]: shown to demethylate both H3K36me2 and H3K4me3 peptides, with high and low efficiencies respectively
fluorescence coupled demethylation assay [2]: shown to demethylate both H3K36me2 and H3K4me3 peptides, with high and low efficiencies respectively
specific activity (ratio H3K36me2 versus H3K4me3 peptide) [2]: about three times higher specific activity towards the H3K36me2 versus the H3K4me3 peptide

B2: 171-707 Ndy1 fragment containing the Y221A mutation (protein)
chain: B1 chain with Y51A
fluorescence coupled demethylation assay [1]: failed to demethylate either of the peptide substrates
fluorescence coupled demethylation assay [2]: failed to demethylate either of the peptide substrates
